Patent US20120035244A1 (REGENTS OF THE UNIVERSITY OF MICHIGAN, published 2012)

B1: ERG, TMPRSS2:ERG gene fusion product (TMPRSS2 exon 1 fused to ERG1 exon 2) (other, human, UniProt P11308 33-479, looked up)
chain: MTASSSSDYGQTSKMSPRVPQQDWLSQPPARVTIKMECNPSQVNGSRNSPDECSVAKGGKMVGSPDTVGMNYGSYMEEKHMPPPNMTTNERRVIVPADPTLWSTDHVRQWLEWAVKEYGLPDVNILLFQNIDGKELCKMTKDDFQRLTPSYNADILLSHLHYLRETPLPHLTSDDVDKALQNSPRLMHARNTGGAAFIFPNTSVYPEATQRITTRPDLPYEPPRRSAWTGHGHPTPQSKAAQPSPSTVPKTEDQRPQLDPYQILGPTSSRLANPGSGQIQLWQFLLELLSDSSNSSCITWEGTNGEFKMTDPDEVARRWGERKSKPNMNYDKLSRALRYYYDKNIMTKVHGKRYAYKFDFHGIAQALQPHPPESSLYKYPSDLPYMGSYHAHPQKMNFVAPHPPALPVTSSSFFAAPNPYWNSPTGGIYPNTRLPTSHMPSHLGTYY
notes: Untagged fusion product: endogenous in VCaP cells and in ERG fusion-positive human prostate cancer tissues; no tag stated; also called TMPRSS-ERG gene fusion product; endogenous gene fusion product
B2: XRCC4 (other, human, UniProt Q13426 1-336, looked up)
chain: MERKISRIHLVSEPSITHFLQVSWEKTLESGFVITLTDGHSAWTGTVSESEISQEADDMAMEKGKYVGELRKALLSGAGPADVYTFNFSKESCYFFFEKNLKDVSFRLGSFNLEKVENPAEVIRELICYCLDTIAENQAKNEHLQKENERLLRDWNDVQGRFEKCVSAKEALETDLYKRFILVLNEKKTKIRSLHNKLLNAAQEREKDIKQEGETAICSEMTADRDPVYDESTDEESENQTDLSGLASAAVSKDDSIISSLDVTDIAPSRKRRQRMQRNLGTEPKMAPQENQLQEKENSRPDSSLPETSKKEHISAENMSLETLRNSSPEDLFDEI

Legend:
ATR = ATR (human, UniProt Q13535 1-2644); assay: ERG immunoprecipitation from VCaP cells, Western blot (FIG. 8b)
Sequence of ATR (Q13535 whole entry): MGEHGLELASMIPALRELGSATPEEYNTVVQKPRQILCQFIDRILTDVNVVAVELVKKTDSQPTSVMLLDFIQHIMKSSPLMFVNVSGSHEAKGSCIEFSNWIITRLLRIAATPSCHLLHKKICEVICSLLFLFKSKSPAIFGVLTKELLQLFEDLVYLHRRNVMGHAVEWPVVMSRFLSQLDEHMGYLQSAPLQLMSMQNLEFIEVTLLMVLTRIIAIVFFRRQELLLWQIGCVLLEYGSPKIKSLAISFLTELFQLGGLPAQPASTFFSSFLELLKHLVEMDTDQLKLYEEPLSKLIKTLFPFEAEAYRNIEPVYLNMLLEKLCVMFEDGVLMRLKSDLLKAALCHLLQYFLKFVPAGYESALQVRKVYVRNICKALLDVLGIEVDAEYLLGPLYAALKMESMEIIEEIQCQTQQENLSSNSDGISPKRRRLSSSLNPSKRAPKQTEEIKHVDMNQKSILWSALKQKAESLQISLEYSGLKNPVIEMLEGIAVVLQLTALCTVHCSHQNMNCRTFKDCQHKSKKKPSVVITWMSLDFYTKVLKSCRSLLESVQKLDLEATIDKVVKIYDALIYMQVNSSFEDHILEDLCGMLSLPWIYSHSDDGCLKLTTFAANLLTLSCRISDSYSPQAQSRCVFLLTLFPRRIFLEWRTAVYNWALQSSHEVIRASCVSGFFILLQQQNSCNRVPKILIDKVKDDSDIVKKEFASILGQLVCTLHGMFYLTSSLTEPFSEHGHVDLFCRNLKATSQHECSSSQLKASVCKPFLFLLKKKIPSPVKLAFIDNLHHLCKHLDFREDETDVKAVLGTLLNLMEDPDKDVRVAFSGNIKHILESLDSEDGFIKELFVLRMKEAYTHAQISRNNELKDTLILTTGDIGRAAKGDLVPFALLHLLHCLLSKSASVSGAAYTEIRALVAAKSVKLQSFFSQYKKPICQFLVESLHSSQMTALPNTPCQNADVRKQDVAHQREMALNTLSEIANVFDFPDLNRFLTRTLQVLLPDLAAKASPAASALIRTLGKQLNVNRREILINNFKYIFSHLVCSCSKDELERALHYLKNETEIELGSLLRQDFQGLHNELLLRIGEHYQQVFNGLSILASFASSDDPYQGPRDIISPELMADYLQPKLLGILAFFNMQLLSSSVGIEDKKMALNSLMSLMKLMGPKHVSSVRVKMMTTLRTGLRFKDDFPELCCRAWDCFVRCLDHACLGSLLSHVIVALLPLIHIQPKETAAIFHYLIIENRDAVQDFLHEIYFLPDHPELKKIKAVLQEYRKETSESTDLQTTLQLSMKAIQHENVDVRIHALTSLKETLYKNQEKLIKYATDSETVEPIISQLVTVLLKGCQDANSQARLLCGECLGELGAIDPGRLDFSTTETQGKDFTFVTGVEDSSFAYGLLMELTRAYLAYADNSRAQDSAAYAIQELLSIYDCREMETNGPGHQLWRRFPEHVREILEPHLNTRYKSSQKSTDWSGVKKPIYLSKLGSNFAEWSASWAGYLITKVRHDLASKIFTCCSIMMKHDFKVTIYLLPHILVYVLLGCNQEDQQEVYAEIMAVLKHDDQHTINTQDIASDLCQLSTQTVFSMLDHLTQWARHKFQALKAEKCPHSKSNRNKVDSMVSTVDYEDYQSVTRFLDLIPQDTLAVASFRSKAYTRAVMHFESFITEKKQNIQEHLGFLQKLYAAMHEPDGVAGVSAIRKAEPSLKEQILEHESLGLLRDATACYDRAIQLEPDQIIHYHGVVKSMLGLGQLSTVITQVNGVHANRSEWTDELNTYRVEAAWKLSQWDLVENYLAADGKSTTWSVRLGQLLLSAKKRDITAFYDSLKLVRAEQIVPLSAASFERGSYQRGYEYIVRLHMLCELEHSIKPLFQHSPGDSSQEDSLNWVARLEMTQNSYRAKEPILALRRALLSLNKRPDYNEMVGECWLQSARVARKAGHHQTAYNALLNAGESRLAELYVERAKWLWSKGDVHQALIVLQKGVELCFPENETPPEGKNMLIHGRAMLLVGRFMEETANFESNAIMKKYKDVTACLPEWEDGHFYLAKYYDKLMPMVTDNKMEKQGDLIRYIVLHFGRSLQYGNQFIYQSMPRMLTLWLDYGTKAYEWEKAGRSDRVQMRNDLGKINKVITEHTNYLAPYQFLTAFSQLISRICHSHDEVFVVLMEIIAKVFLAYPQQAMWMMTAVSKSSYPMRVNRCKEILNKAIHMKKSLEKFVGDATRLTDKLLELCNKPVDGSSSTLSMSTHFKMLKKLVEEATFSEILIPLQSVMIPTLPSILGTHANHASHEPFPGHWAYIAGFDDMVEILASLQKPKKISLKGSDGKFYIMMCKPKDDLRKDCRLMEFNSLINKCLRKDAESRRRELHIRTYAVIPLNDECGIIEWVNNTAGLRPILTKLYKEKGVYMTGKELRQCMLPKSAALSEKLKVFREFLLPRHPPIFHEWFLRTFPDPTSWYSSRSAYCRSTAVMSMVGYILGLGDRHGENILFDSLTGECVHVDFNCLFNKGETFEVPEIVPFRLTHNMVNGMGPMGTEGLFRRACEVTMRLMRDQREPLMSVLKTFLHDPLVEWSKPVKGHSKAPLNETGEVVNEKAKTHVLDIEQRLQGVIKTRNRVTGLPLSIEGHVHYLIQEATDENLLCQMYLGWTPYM

[1] = biological target: B1; assay: ERG immunoprecipitation from VCaP cells, Western blot (FIG. 1b)

| Binder | binding result (ATR) | binding result [1] |
| --- | --- | --- |
| B1 | no binding |  |
| B2 |  | no binding |
